Substitutions are numbered along the chain they refer to. Numbers in names are those of the source. Entries after “also recorded” stand apart in the source; their conditions may differ.
Assays:
CCL8_HUMAN = target: T1, CCL8_HUMAN (Homo sapiens, UniProt P80075); assay: Biolayer interferometry (BLI) binding; conditions: for CCL8 binding (bound or not): 300 nM or 600 nM CCL8; for Kd: read-out: Kd, CCL8_HUMAN
T1 sequence (P80075 24-99): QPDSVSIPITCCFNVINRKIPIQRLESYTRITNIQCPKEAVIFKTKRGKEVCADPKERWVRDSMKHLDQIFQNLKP
Method: (§1) Table 1. Tick CKBPs described in PCT/GB2017/050563 and [17]. Tick peptide sequences isolated in yeast surface display fluorescent-activated cell sorting (FACS) screens using a labelled chemokine. Identity with Evasin-1, 4 or 3 was calculated using BLAST. Abbreviations: IXORI—Ixodes ricinus, RHISA—Rhipicephalus sanguineus, AMBMA—Amblyomma maculatum, AMBPA—Amblyomma parvum, AMBTR—Amblyomma triste, AMBAM—Amblyomma americanum, AMBCA—Amblyomma cajennense, RHIPU—Rhipicephalus pulchellus. Table 2A-C. Binding characteristics of tick CKBPs previously disclosed (PCT/GB2017/050563 and [17]). All members of the human chemokine family[164] are listed in column 1. Binding to human chemokines was determined for 14 tick CKBPs using biolayer interferometry (BLI) with calculated Kd shown as Molar (Moles/Litre). Binding data for 17 other novel tick CKBPs was assayed using yeast surface display[17,166],with positive binding results shown as “YES”. For biolayer interferometry, His-tagged purified tick CKBP was bound to a Ni-NINTA sensor on an OctetRed® 384 system, and then binding to each chemokine listed (with the exception of CCL25, CCL26, CXCL16, CXCL17, CXCL4L1, XCL2) was assayed in a cross-binding screen at a chemokine concentration of 300 nM as described. For those chemokines showing binding to a tick CKBP in the cross-binding screen, binding assays were repeated using different doses of chemokine. Association, equilibrium and dissociation data were analysed using Octet software to create corresponding fitted curves, and used to calculate Kd. For yeast surface display, (YSD) background fluorescence was controlled for by using either an empty vector or by omitting the chemokine (i.e. using streptavidin-Alexa647 alone). An arbitrary threshold of >3 fold over background mean fluorescence intensity was chosen to describe confirmed re-tests. Where binding was detected data are indicated as “YES”. […] For yeast surface display data, empty cells represent chemokines that were not tested. Binding data published in relation to previously described tick CKBPs (Evasins-1, 4 and 3) is also shown for comparison in each of FIGS. 2A-C, with the relevant data obtained from publications: [20-22,32]. Table 3: Neutralisation of human chemokines by tick CKBPs previously disclosed (PCT/GB2017/050563 and [17]). Neutralising activity was determined using a quantitative THP1 cell migration assay in a 96-well Boyden chamber with chemokine in the bottom chamber as described. Cells migrating through to the bottom chamber at 4 hours were counted using flow cytometry in a 96 well plate format. IC50 for neutralisation was determined at the chemokine EC80 dose as determined using a range of tick CKBP concentrations. Data was analysed using GraphPad Prism to determine IC50, which is shown as Molar (Moles/Litre). Empty cells represent experiments not done. Table 4—Other previously described tick CKBPs. Tick CKBPs that were also described in PCT/GB2017/050563 and Singh et al. are indicated in “Notes”. Table 5.—Novel tick CKBPs of the invention. Table 6. […] The peptide sequence prefix indicates the identity, and suffix indicate the tick species as follows: AMBCA, Amblyomma cajennense and IXORI, Ixodes ricinus. […] Certain tick peptides e.g. P1074_IXORI were recovered from screens performed with more than one chemokine. Individual yeast clones recovered from the library were re-tested using a FACS (fluorescence activated cell sorting), experiment. The binding of the peptide to the chemokine was assayed by measuring the percent (%), of yeast cells expressing the given peptide that exceeded a background threshold set by measuring the fluorescence of the yeast library pool treated with streptavidin-[…] alone. When more than one independent yeast clone was isolated for a given peptide-chemokine combination, the mean percent shift was calculated and reported in column 3. […]

chemokines = conditions: list of chemokines bound, from the literature [18,20-22]; cited from earlier work
CCL11_HUMAN = CCL11_HUMAN (Homo sapiens, UniProt P51671); assay: Biolayer interferometry (BLI) binding
Method: as §1

CCL13_HUMAN = CCL13_HUMAN (Homo sapiens, UniProt Q99616); assay: Biolayer interferometry (BLI) binding
Method: as §1

CCL14_HUMAN = target: T2, CCL14_HUMAN (Homo sapiens, UniProt Q16627); assay: Biolayer interferometry (BLI) binding
T2 sequence (Q16627 20-93): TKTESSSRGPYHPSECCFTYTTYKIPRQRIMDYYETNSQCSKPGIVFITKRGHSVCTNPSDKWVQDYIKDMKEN
Method: as §1

CCL2_HUMAN = CCL2_HUMAN (Homo sapiens, UniProt P13500); assay: Biolayer interferometry (BLI) binding
Method: as §1

CCL3L1_HUMAN = CCL3L1_HUMAN (Homo sapiens, UniProt P16619); assay: Biolayer interferometry (BLI) binding
Method: as §1

CCL3_HUMAN = target: T3, CCL3_HUMAN (Homo sapiens, UniProt P10147); assay: Biolayer interferometry (BLI) binding
T3 sequence (P10147 24-92): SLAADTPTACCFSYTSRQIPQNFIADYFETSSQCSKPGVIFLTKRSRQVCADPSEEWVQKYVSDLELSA
Method: as §1

CCL4_HUMAN = target: T4, CCL4_HUMAN (Homo sapiens, UniProt P13236); assay: Biolayer interferometry (BLI) binding
T4 sequence (P13236 24-92): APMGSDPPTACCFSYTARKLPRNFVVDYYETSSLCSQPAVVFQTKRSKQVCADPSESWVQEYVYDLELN
Method: as §1

CCL7_HUMAN = CCL7_HUMAN (Homo sapiens, UniProt P80098); assay: Biolayer interferometry (BLI) binding
Method: as §1

CCL4L1_HUMAN = target: T5, CCL4L1_HUMAN (Homo sapiens, UniProt Q8NHW4); assay: Biolayer interferometry (BLI) binding
T5 sequence (Q8NHW4 24-92): T4 sequence (P13236 24-92) with S47G
Method: as §1

Sequence of CCL13_HUMAN (Q99616 17-98): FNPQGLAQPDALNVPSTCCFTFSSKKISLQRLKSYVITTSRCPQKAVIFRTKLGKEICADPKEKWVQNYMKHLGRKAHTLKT
Sequence of CCL2_HUMAN (P13500 24-99): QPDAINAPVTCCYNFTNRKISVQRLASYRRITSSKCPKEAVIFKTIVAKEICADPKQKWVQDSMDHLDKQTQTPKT
Sequence of CCL7_HUMAN (P80098 24-99): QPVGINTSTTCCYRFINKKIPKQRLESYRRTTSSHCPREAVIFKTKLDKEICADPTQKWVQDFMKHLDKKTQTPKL
Sequence of CCL11_HUMAN (P51671 24-97): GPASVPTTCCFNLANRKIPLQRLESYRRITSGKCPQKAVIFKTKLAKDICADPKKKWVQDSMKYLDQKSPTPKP
Sequence of CCL3L1_HUMAN (P16619 24-93): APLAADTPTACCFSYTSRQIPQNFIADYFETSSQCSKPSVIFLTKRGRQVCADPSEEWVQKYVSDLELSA

B1: EVA1(P67222-32): hybrid protein: P672 (E22-F32) region swapped into the corresponding segment of EVA1_RHISA (protein)
chain: EDDEDYEDFFKPVTCYFLVAENKTGYPTIVACKQDCNGTTETAPNGTRCFSIGDEGLRRMTANLPYDCPLGQCSNGDCIPKETYEVCYRRNWRDKKN
modifications: EVA1 containing P672 E22-E32
notes: hybrid protein: P672 (E22-F32) region swapped into the corresponding segment of EVA1_RHISA
With B1 the “CCL8 binding (bound or not)” value (CCL8_HUMAN) was “bound CCL8”.

B2: ATR-02: previously described tick CKBP, Amblyomma triste (protein)
chain: GNEVSDPPLTDEDCEYYDPSEDNITCSIRSLNTTGRPIPVGCLATCENSTRRLHNGTECLGISDQVANRMQGNVTYTCPVGLCYRGVCQRNGLGIDCWHNTPPPNSTNVTTNASTTPLPTSSRDL
modifications: Amblyomma triste
In the case of B2, the “Previously described chemokine binding” value (chemokines) is listed as “CCL11, CCL24,; also recorded: CCL26, CCL2,; also recorded: CCL8, CCL7”.

B3: IHO-01: previously described tick CKBP, Ixodes holocyclus (protein, listed as Ixodes holocyclus)
chain: AFVSSSTEVEIGSTSEHNSNETDEYGYDYNADGLGCPVVGIGGLDNKTWHPNCTNECPNSTKLFLLENGTP
In the case of B3, the “Previously described chemokine binding” value (chemokines) is given as “CCL11, CCL24, and CCL26, CCL2, and CCL8”.

B4: P983_AMBPA: tick CKBP; named P983_AMBCA in Table 1 (protein)
chain: EDTGTEDDFDYGNTGCPFPVLGNYKSNMTKPVGCKNKCGSGYEVLNDTTPCYVIDQKVFNNMVPLRQYSKCPLGFCENGECKPNDQAEDCYKGREEQK
modifications: Amblyomma cajennense
In the case of B4, the Kd (CCL11_HUMAN) is reported as 21 nM, the Kd (CCL13_HUMAN) is reported as 17 nM and the Kd (CCL14_HUMAN) is reported as 81 nM. The Kd (CCL2_HUMAN) was 14 nM, the Kd (CCL3L1_HUMAN) was 2.1 nM and the Kd (CCL3_HUMAN) was 3.5 nM. The Kd (CCL4_HUMAN) was 8 nM, the Kd (CCL7_HUMAN) was 32 nM and the Kd (CCL8_HUMAN) was 7 nM.

B5: SEQ ID NO: 83: substituted hybrid with greater extent of P672_RHIPU sequence in Evasin-1 (protein)
chain: VCEVSEQEGVGEDNATEDEDYEDFFKPVTCYFANSTVGPLRPPNCTVVCTNNTAWWNDTKSDGGHCFSIGDEGLRRMTANLPYDCPLGQCSNGDCIPKETYEVCYRRNWRDEKN
modifications: tick CKBP sequence
In the case of B5, the “CCL8 binding (bound or not)” value (CCL8_HUMAN) is reported as “having a CCL8-binding function”.

B6: Evasin-1 peptide encoded by EZ406190.1: Evasin-1 peptide variant K92E encoded by nucleotide sequence EZ406190.1 (protein)
chain: EDDEDYGDLGGCPFLVAENKTGYPTIVACKQDCNGTTETAPNGTRCFSIGDEGLRRMTANLPYDCPLGQCSNGDCIPKETYEVCYRRNWRDEKN
In the case of B6, the “CCL8 binding (bound or not)” value (CCL8_HUMAN) is reported as “does not bind CCL8”.

B7: IRI-01: previously described tick CKBP, Ixodes ricinus (protein, listed as Ixodes ricinus)
chain: GPAPSAKENEKAPLCLPQESLINNRDPNGCNYQLLPYFTEDGMGGGFLAIDCSKSCPEGTHETVVDGNS
In the case of B7, the “Previously described chemokine binding” value (chemokines) is given as “CCL11, CCL24,; also recorded: CCL26, CCL2,; also recorded: CCL8, CCL7”.

B8: P1183_AMBTR: tick CKBP, Amblyomma triste (protein)
chain: EAPKDDFEYDGGCPFVVLDNGTHVKPAGCSHLCNGAPETLDNIECYNVTEEVAKRMTPGIPYACWLGWCSKGECKRDNRTEVCYRGSEEE
modifications: Amblyomma triste
Molecule B8 has a Kd (CCL11_HUMAN) of 8.5 nM, a Kd (CCL13_HUMAN) of 5.7 nM and a Kd (CCL2_HUMAN) of 12 nM. It also gave a Kd (CCL4L1_HUMAN) of 48 nM, a Kd (CCL4_HUMAN) of 78 nM and a Kd (CCL7_HUMAN) of 5.4 nM. It also gave a Kd (CCL8_HUMAN) of 1100 nM.

B9: AMA-01: previously described tick CKBP, Amblyomma maculatum (protein, listed as Amblyomma maculatum)
chain: ECEESDTSESTECSTEDYSNRIRDNETCFIGALNTTGHPVPVGCTLDCGNSTRYLPNGTECIDLTQQASDVMQSDVPYYCPIGLCANGICKRSGLELNCWHDMPPPVSTDTAIENPTTSISSSAKL
For B9, the “Previously described chemokine binding” value (chemokines) is listed as “CCL11, CCL24,; also recorded: CCL26, CCL2,; also recorded: CCL8, CCL7”.

B10: AAM-01: previously described tick CKBP, Amblyomma americanum (protein, listed as Amblyomma americanum)
chain: ESEGSVSTETEVISYEDDCQDDNSTCFIQTLNTTGEPRPVGCILECENSTQRLPNGTECLGLPGLAAVKMQRNVSYTCSVGLCNGEGVCDRTGLWIGCWTNTPPPNSTNVTTKPPTTTTASPGTG
In the case of B10, the “Previously described chemokine binding” value (chemokines) is given as “CCL11, CCL24,; also recorded: CCL26, CCL2,; also recorded: CCL8, CCL7”.

B11: SEQ ID NO: 82: substituted hybrid with greater extent of P672_RHIPU sequence in Evasin-1 (protein)
chain: VCEVSEQEGVGEDNATEDEDYEDFFKPVTCYFANSTVGPLRPPNCTVVCTNNTAWWNDTKSDGGHCYSEYRPEKRTHSREIYNCTIGVCGNGDCIPKETYEVCYRRNWRDEKN
modifications: tick CKBP sequence
For B11, the “CCL8 binding (bound or not)” value (CCL8_HUMAN) was “having a CCL8-binding function”.

B12: ACA-02: previously described tick CKBP, Amblyomma cajennense (protein)
chain: GIEGSGNLATSHEMDDCLDDNSTCVIQTLNTTGEPRPVGCVLKCKNSTQHLANGTECLGIPELAGVRMQYNVSYTCAVGLCNAGVCERTGLWIGCWQNEPPPNSTDVTTTAPTTTTASTSSV
modifications: Amblyomma cajennense
For B12, the “Previously described chemokine binding” value (chemokines) is listed as “CCL11, CCL24,; also recorded: CCL26”.

B13: RPU-02: previously described tick CKBP, Rhipicephalus pulchellus (protein, listed as Rhipicephalus pulchellus)
chain: CEVQNTTLAEEDYDTGCGYNIVITKNKTLVVNCTMDCQPKMLMNESEPCLFNSSVPYDHMQPHHNYTCMEGICKNGTCVSPSNNITCWLPPPPVRYYPNETMVTSTIEPEA
In the case of B13, the “Previously described chemokine binding” value (chemokines) is listed as “CCL11, CCL24,; also recorded: CCL26, CCL2,; also recorded: CCL8, CCL7”.

From patent publication US20200247855A1, “THERAPY AND DIAGNOSTICS” (OXFORD UNIVERSITY INNOVATION LIMITED, priority 2017, published 2020)
